The record followed here is paper PMC6063412 (2018).

B1: monoclonal anti-PDGF-CC antibody 6B3 (antibody, V domains shown)
VH: QVQLQQSGVEVARPGASVKLSCKASGYTFRSYGITWVRQRTGQGLEWIGEIYPRSGKTYYNEKFKGKATLTADTSSSTVYMELRSLTSEDSAVYFCAREGYGYDGGYFDYWGQGTTLTVSS
VL: DIVMTQSPSSLAMSVGQKVTMSCKSSQSLLNSRNQKNYLAWYQQKPGQSPKLLVYFASTRESGVPDRFTGSGSGTDFTLTISSVQAEDLAVYYCQQHYSTPLTFGAGTKLELK
B2: monoclonal anti-PDGF-CC antibody 11F5 (antibody, V domains shown)
VH: QVQLQQSGAELARPGASVKLSCKASGYIFISYGISWVKQRTGQGLEWIGEIYPRSGKTYYNEKFKDKAALTADKSSSIAYMELRSLTSEDSAVYFCAREGYGYDGGYFDYWGQGTILTVSS
VL: DIVMTQSPSSLAMSVGQKVAVSCKSSQSLLNSSNQKNYLAWYQQKPGQSPKLLVYFASTRDSGVPDRFTGSGSGTDFTLTISSVQAEDLAVYYCQQHYSTPLTFGAGTKLELK
B3: monoclonal anti-PDGF-CC antibody 19C7 (antibody, V domains shown)
VH: QVQLQQSGVEVARPGASVKLSCKASGYTFRSYGITWVRQRTGQGLEWIGEIYPRSGKTYYNEKFKGKATLTADTSSSTVYMELRSLTSEDSAVYFCAREGYGYDGGYFDYWGQGTTLTVSS
VL: DIVMTQSPSSLAMSVGQKVTMSCKSSQSLLNSRNQKNYLAWYQQKPGQSPKLLVYFASTRESGVPDRFTGSGSGTDFTLTISSVQAEDLAVYYCQQHYSTPLTFGAGTKLELK

For orientation: koff means the first-order rate constant of dissociation.

The target of this experiment is T1, recombinant human PDGF-CC core domain protein (activated PDGF-CC, growth factor domain) (human, UniProt Q9NRA1 230-345).
T1 chain: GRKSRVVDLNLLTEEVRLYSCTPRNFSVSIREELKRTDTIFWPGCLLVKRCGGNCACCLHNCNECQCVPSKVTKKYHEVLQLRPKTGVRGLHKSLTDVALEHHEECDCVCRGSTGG
In words: SPR.
Take B1: the koff is 0.0015 s⁻¹. In the case of B2, the koff amounted to 0.00058 s⁻¹. Regarding B3, the off-rate constant (koff) was found to be 0.0016 s⁻¹.
